Measured values from the RNAGym collection of RNA variant scans (doi:10.1093/molbev/msab373).

B1: Azoarcus group I ribozyme (parent)
chain: GUGCCUUGCGCCGGGAAACCACGCAAGGGAUGGUGUCAAAUUCGGCGAAACCUAAGCGCCCGCCCGGGCGUAUGGCAACGCCGAGCCAAGCUUCGGCGCCUGCGCCGAUGAAGGUGUAGAGACUAGACGGCACCCACCUAAGGCAAACGCUAUGGUGAAGGCAUAGUCCAGGGAGUGGCGAAAGUCACACAAACCGG

Variants of: B1
Assay: reverse-splicing fitness (ratio to wild type); higher = more active; in vitro selection; Mg2+ level not given
Method in brief: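 An in vitro group I ribozyme library with randomized positions was T7-transcribed and gel-purified. In triplicate, 10 pmol RNA in EPPS pH 7.5 was reacted with 50 pmoles of a 30-nt RNA substrate for 1 h at 37 °C across several added MgCl2 levels (1–48 mM), then stopped with EDTA. Products were reverse transcribed from a substrate-complementary primer, PCR-amplified and sequenced (HiSeq 4000). Fitness is a variant's read proportion after selection over that before, normalised to wild type.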
In the case of C82U A111G A120G A145U C169U U176C, the reverse-splicing fitness is reported as 0.0133.
Variant C82U A111G A120G A145U C150U C169U U176C has a reverse-splicing fitness of 0.0131.
For C82U A111G A120G A145U C150U C169U U176A, the reverse-splicing fitness was 0.02.
In the case of C82U A111G A120G A145U C150U C169U U176G, the reverse-splicing fitness is reported as 0.00432.
With C82U A111G A120G A145U C150U C169A U176G the reverse-splicing fitness was 0.0045.
With C82U A111G A120G A145U C150U C169A U176A the reverse-splicing fitness was 0.0119.
C82U A111G A120G A145U C150U C169A U176C gave a reverse-splicing fitness of 0.00928.
Variant C82U A111G A120G C150U C169U has a reverse-splicing fitness of 0.00996.
Variant C82U A111G A120G C150U C169G has a reverse-splicing fitness of 0.0104.
For C82U A111G A120G C150U C169A, the reverse-splicing fitness was 0.0105.
C82U A111G A120G C150U C169A U176G gave a reverse-splicing fitness of 0.00504.
With C82U A111G A120G C150U C169A U176A the reverse-splicing fitness was 0.0143.
C82U A111G A120G C150U C169A U176C gave a reverse-splicing fitness of 0.0129.
C82U A111G A120G A145C C169U gave a reverse-splicing fitness of 0.00954.
In the case of C82U A111G A120G A145C C169A, the reverse-splicing fitness is reported as 0.00792.
In the case of C82U A111G A120G A145C C169G, the reverse-splicing fitness is reported as 0.0123.
Variant C82U A111G A120U A145C C169A has a reverse-splicing fitness of 0.00224.
C82U A111G A120G A145U C150A C169G U176C gave a reverse-splicing fitness of 0.0137.
C82U A111G A120G A145U C150A C169G U176A showed a reverse-splicing fitness of 0.0124.
C82U A111G A120G A145U C150A C169G U176G showed a reverse-splicing fitness of 0.00398.
C82U A111G A120G C150U U176A gave a reverse-splicing fitness of 0.00985.
C82U A111G A120G C150U U176G showed a reverse-splicing fitness of 0.00506.
Variant C82U A111G A120G C150U U176C has a reverse-splicing fitness of 0.0156.
For C82U A111G A120G A145C C169G U176C, the reverse-splicing fitness was 0.0158.
With C82U A111G A120G A145C C169G U176A the reverse-splicing fitness was 0.0238.
With C82U A111G A120G A145C C169G U176G the reverse-splicing fitness was 0.0039.
For C82U A111G A120G A145G C150G U176G, the reverse-splicing fitness was 0.00546.
C82U A111G A120G A145G C150G U176C showed a reverse-splicing fitness of 0.00856.
In the case of C82U A111G A120G A145G C150G U176A, the reverse-splicing fitness is reported as 0.00637.
Work on C82U A111G A120G A145U C150G C169G U176A yielded a reverse-splicing fitness of 0.00667.
Work on C82U A111G A120G A145U C150G C169G U176G yielded a reverse-splicing fitness of 0.00427.
C82U A111G A120G A145U C150G C169G U176C showed a reverse-splicing fitness of 0.00487.
C82U A111G A120G C150A C169A U176G showed a reverse-splicing fitness of 0.00577.
C82U A111G A120G C150A C169A U176C showed a reverse-splicing fitness of 0.0192.
Work on C82U A111G A120G C150A C169A U176A yielded a reverse-splicing fitness of 0.0173.
Work on C82U A111G A120C C169U U176G yielded a reverse-splicing fitness of 0.00349.
Work on C82U A111G A120C C169U U176A yielded a reverse-splicing fitness of 0.0149.
Work on C82U A111G A120C C169U U176C yielded a reverse-splicing fitness of 0.014.
In the case of C82U A111G A120G A145C C150U U176C, the reverse-splicing fitness is reported as 0.00908.
In the case of C82U A111G A120G A145C C150U U176G, the reverse-splicing fitness is reported as 0.00386.
Variant C82U A111G A120G A145C C150U U176A has a reverse-splicing fitness of 0.0079.
C82U A111G A120G showed a reverse-splicing fitness of 0.0173.
C82U A111G A120U showed a reverse-splicing fitness of 0.0431.
Work on C82U A111G A120G A145G C150A U176G yielded a reverse-splicing fitness of 0.00593.
C82U A111G A120G A145G C150A U176A gave a reverse-splicing fitness of 0.0088.
With C82U A111G A120G A145G C150A U176C the reverse-splicing fitness was 0.0196.
C82U A111G A120G A145G C150A C169A U176A showed a reverse-splicing fitness of 0.0174.
C82U A111G A120G A145G C150A C169A U176C showed a reverse-splicing fitness of 0.0196.
In the case of C82U A111G A120G A145G C150A C169A U176G, the reverse-splicing fitness is reported as 0.00545.
In the case of C82U A111G A120G A145C C150A U176C, the reverse-splicing fitness is reported as 0.00818.
Variant C82U A111G A120G A145C C150A U176G has a reverse-splicing fitness of 0.00354.
Work on C82U A111G A120G A145C C150A U176A yielded a reverse-splicing fitness of 0.00929.
For C82U A111G A120C U176C, the reverse-splicing fitness was 0.0288.
In the case of C82U A111G A120C U176A, the reverse-splicing fitness is reported as 0.0204.
C82U A111G A120C U176G showed a reverse-splicing fitness of 0.00542.
Work on C82U A111G A120G A145C C150U C169A U176C yielded a reverse-splicing fitness of 0.00548.
Variant C82U A111G A120G A145C C150U C169A U176G has a reverse-splicing fitness of 0.00395.
Work on C82U A111G A120G A145C C150U C169A U176A yielded a reverse-splicing fitness of 0.0104.
With C82U A111G A120G A145C the reverse-splicing fitness was 0.0135.
Variant C82U A111G A120G A145U has a reverse-splicing fitness of 0.0174.
C82U A111G A120G A145G showed a reverse-splicing fitness of 0.0164.
With C82U A111G A120G A145U C150U U176C the reverse-splicing fitness was 0.0124.
Variant C82U A111G A120G A145U C150U U176A has a reverse-splicing fitness of 0.00942.
Work on C82U A111G A120G A145U C150U U176G yielded a reverse-splicing fitness of 0.00411.
C82U A111G A120U A145C C169A U176A showed a reverse-splicing fitness of 0.00176.
With C82U A111G A120U A145C C169A U176C the reverse-splicing fitness was 0.00194.
In the case of C82U A111G A120G A145U C150G, the reverse-splicing fitness is reported as 0.00645.
In the case of C82U A111G A120G A145U C150A, the reverse-splicing fitness is reported as 0.00726.
Variant C82U A111G A120G A145U C150U has a reverse-splicing fitness of 0.0126.
C82U A111G A120G C150A showed a reverse-splicing fitness of 0.00982.
C82U A111G A120G C150G gave a reverse-splicing fitness of 0.00676.
Work on C82U A111G A120G C150U yielded a reverse-splicing fitness of 0.0125.
Variant C82U A111G A120G A145U C169A has a reverse-splicing fitness of 0.00841.
Variant C82U A111G A120G A145U C169G has a reverse-splicing fitness of 0.0113.
Work on C82U A111G A120G A145U C169U yielded a reverse-splicing fitness of 0.0103.
C82U A111G A120G C150G C169U showed a reverse-splicing fitness of 0.00822.
Work on C82U A111G A120G C150G C169A yielded a reverse-splicing fitness of 0.00895.
In the case of C82U A111G A120G C150G C169G, the reverse-splicing fitness is reported as 0.00749.
C82U A111G A120G A145C C150U C169G U176A showed a reverse-splicing fitness of 0.0203.
Work on C82U A111G A120G A145C C150U C169G U176C yielded a reverse-splicing fitness of 0.0111.
With C82U A111G A120G A145C C150U C169G U176G the reverse-splicing fitness was 0.0045.
Variant C82U A111G A120G A145G C169U U176A has a reverse-splicing fitness of 0.0209.
C82U A111G A120G A145G C169U U176C showed a reverse-splicing fitness of 0.0164.
With C82U A111G A120G A145G C169U U176G the reverse-splicing fitness was 0.00414.
